From patent publication US20080020984A1, “Crystal Structure of a Receptor-Ligand Complex and Methods of Use” (priority 2006, published 2008) come the findings set out here.

Positions count from the first letter of the chain named. pKd, pKi: −log10 of the molar value. Where a SMILES comes first, the peptide text is derived from it. Where no end group is shown, it is not given here. The star is where a group is joined. X1 = CC1N=c2c(cc3c(c2S(=O)(=O)O)Oc2c(cc4c(c2S(=O)(=O)O)NC(C)C4(C)C)C=3c2ccc(C(=O)*)cc2)C1(C)C

Assay [1] deals with Alexa-532-TNYL-RAW peptide. In words: fluorescence polarization, EphB4 titrated into 75 nM Alexa-532-TNYL-RAW.
For assay [2], the target named is T1, EphB4 A186S (Homo sapiens, UniProt P54760, A186S).
T1 construct: GP64 signal peptide (N, cleaved yes); made in house; host or cells: Hi5 insect cells (baculovirus, secreted)
T1 sequence (P54760 17-196 A186S): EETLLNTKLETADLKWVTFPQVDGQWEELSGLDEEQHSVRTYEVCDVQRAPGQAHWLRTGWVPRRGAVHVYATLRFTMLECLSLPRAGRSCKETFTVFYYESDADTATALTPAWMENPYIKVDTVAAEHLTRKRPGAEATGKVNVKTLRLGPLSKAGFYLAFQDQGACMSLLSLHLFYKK
In words: Fluorescence polarization binding of Alexa-532-TNYL-RAW, EphB4 A186S. The conditions noted are these: FP; EphB4 mutant Ala186Ser. The method, then:
(§1) This Example illustrates fluorescence polarization (FP) assays using a fluorescently-labeled reporter peptide to measure binding of various ligands to the EphB4-LBD.
(§2) All experimental data were analyzed using Prism 4.0 software (GraphPad Software Inc., San Diego, Calif.) and Kd values were generated by fitting the experimental data using a one-site binding hyperbola nonlinear regression model or equation 8.10 (.www.invitrogen.com/downloads/FP8.pdf).
(§3) The construct was sequence verified, and baculovirus was generated with homologous recombination into Sapphire Baculovirus DNA (Orbigen, San Diego, Calif.) following the manufacturer's protocol (10). The wtEphB4 construct was used as a template for generation of site specific mutants.
In general terms: Fluorescence polarisation rises when a labelled molecule tumbles more slowly, as on binding a larger partner.

The target in assay [3] is T2, EphB4 T147F (Homo sapiens, UniProt P54760, T147F).
T2 construct: GP64 signal peptide (N, cleaved yes); made in house; host or cells: Hi5 insect cells (baculovirus, secreted)
T2 sequence (P54760 17-196 T147F): T1 sequence (P54760 17-196 A186S) with T131F, S170A
In words: Fluorescence polarization binding of Alexa-532-TNYL-RAW, EphB4 T147F. Conditions: FP; EphB4 mutant Thr147Phe. As to the method:
as §1, §2, §3

In assay [4] the target is T3, EphB4 K149Q (Homo sapiens, UniProt P54760, K149Q).
T3 construct: GP64 signal peptide (N, cleaved yes); made in house; host or cells: Hi5 insect cells (baculovirus, secreted)
T3 sequence (P54760 17-196 K149Q): T1 sequence (P54760 17-196 A186S) with K133Q, S170A
In words: Fluorescence polarization binding of Alexa-532-TNYL-RAW, EphB4 K149Q. Conditions: FP; EphB4 mutant Lys149Gln. As to the method:
as §1, §2, §3

Assay [5] deals with T4, EphB4 L95R (Homo sapiens, UniProt P54760, L95R).
T4 construct: GP64 signal peptide (N, cleaved yes); made in house; host or cells: Hi5 insect cells (baculovirus, secreted)
T4 sequence (P54760 17-196 L95R): T1 sequence (P54760 17-196 A186S) with L79R, S170A
In words: Fluorescence polarization binding of Alexa-532-TNYL-RAW, EphB4 L95R. The conditions noted are these: EphB4 Leu95Arg mutant. As to the method: as §1, §2, §3

For assay [6], the target named is human EphB4 (17-196) K149Q mutant (human). In words: ITC in phosphate buffer.
For assay [7] the target is unchanged. In words: ITC, 25 °C. For orientation: ITC needs no label: the signal is the heat of the interaction.
Assay [8] has as its target human EphB4 (17-196) L95R mutant (human). In words: ITC, 25 °C.
Assay [9] has as its target human EphB4 (17-196) ligand binding domain, wild type (human). In words: ITC, 25 °C.
Assay [10] has as its target human EphB4 (17-196) K149Q mutant (human). In words: ITC, 25 °C, 50 mM Tris pH 7.8, 150 mM NaCl, 1 mM CaCl2.
The target in assay [11] is human EphB4 (17-196) L95R mutant (human). Described as above.
Assay [12] has as its target human EphB4 (17-196) ligand binding domain, wild type (human). The description is as above.
In assay [13] the target is T5, human EphB4 ephrin-binding domain, EphB4 (wt), EphB4 (17-196) (Homo sapiens, UniProt P54760).
T5 sequence (P54760 17-196): T1 sequence (P54760 17-196 A186S) with S170A
In words: Isothermal titration calorimetry (ITC), wild-type EphB4. Conditions: Table 5, receptor EphB4 (wt).
Description: All mutants and ligands were dialyzed into buffer containing 50 mM Tris-Cl (pH 7.8), 150 mM NaCl, and 1 mM CaCl2 prior to use in isothermal titration calorimetry (ITC) experiments. All experiments were performed with a Microcal MCS ITC at 25° C. […] Data for these titrations were fit assuming a stoichiometry of 1 and at least 60% saturation at the final peptide concentration as described (19,34).
Peptides were dissolved into the same buffer used for the dialysis of EphB4. […] ITC experiments were performed with a Microcal MCS ITC at 25° C. Following an initial injection of 2 μl, titrations were performed by making 20 13 μl injections of peptide into EphB4 in the sample cell to produce an approximate final 2:1 ratio of injectant to sample in the cell. […] Prior to loading the sample cell, EphB4 was centrifuged at 18,000 g for 5 min at 4° C. to remove aggregates and degassed for 5 minutes at room temperature. […] Dilution data were fit to a line and subtracted from the corresponding titration data.

Assay [14] deals with Alexa-532-TNYL-RAW peptide. In words: fluorescence polarization.
The target of assay [15] is human EphB4 (17-196) K149Q mutant (human). In words: FP competition, unlabeled TNYL-RAW against Alexa-532-TNYL-RAW on EphB4 K149Q (FIG. 7).
Assay [16] addresses human EphB4 (17-196) L95R mutant (human). In words: ITC, 25 °C, 2 mM TNYL-RAW in the syringe, 15 µM EphB4 (L95R) in the cell; fit assuming stoichiometry of 1.
Assay [17] has as its target human EphB4 (17-196) K149Q mutant (human). In words: ITC.
For assay [18], the target named is human EphB4 (17-196) L95R mutant (human). In words: ITC.
Assay [19] has as its target human EphB4 (17-196) ligand binding domain, wild type (human). In words: FP competition, unlabeled TNYL-RAW against Alexa-532-TNYL-RAW on wtEphB4 (FIG. 7).

The term pKd denotes the Kd on a negative log10 scale, so that one unit is a factor of ten. Low values mean a high Kd, high ones a low Kd. Regarding “human EphB4 (17-196) A186S mutant (receptor)”, the pKd in [1] was 7.80.
With `CC[C@H](C)[C@H](NC(=O)[C@@H]1CCCN1C(=O)CNC(=O)[C@H](CC(N)=O)NC(=O)[C@@H]1CCCN1C(=O)[C@H](CO)NC(=O)[C@H](Cc1ccccc1)NC(=O)[C@H](CC(C)C)NC(=O)[C@H](Cc1ccc(O)cc1)NC(=O)[C@H](CC(N)=O)NC(=O)[C@@H](NC(=O)c1ccc(C2=c3cc4c(c(S(=O)(=O)O)c3Oc3c2cc2c(c3S(=O)(=O)O)NC(C)C2(C)C)=NC(C)C4(C)C)cc1)[C@@H](C)O)C(=O)N[C@@H](C)C(=O)N[C@@H](CCCNC(=N)N)C(=O)N[C@@H](C)C(=O)N[C@@H](Cc1c[nH]c2ccccc12)C(=O)O` (stereo partly shown) [Alexa-532-TNYL-RAW] (X1-TNYLFSPNGPIARAW-OH; N-terminus and C-terminus assumed), the “reduction in binding affinity versus wild type” value in [2], in assay [3] and in [4] was 4-5 fold each time. The “binding of the peptide in FP assay” value in assay [5] is given as “did not exhibit significant binding”.
As for “human ephrinB2 (extracellular domain; residues 25-187) (ligand)”, the ΔHobs in assay [6] is 3.9 kcal/mol. In addition, the negative logarithm of the Kd (pKd) in [7] is 7.70; in assay [8], 5.72; in assay [9], 7.40; in [10] it was 7.70; in assay [11], 5.72; in assay [12] it was 7.40. Further, the TΔS in assay [7] amounted to 14.1 kcal/mol; in assay [8] it was 13 kcal/mol; in assay [9] it was 13.4 kcal/mol; in assay [10] it was 14.4 kcal/mol; in assay [11], 13 kcal/mol; in [12] it was 13.4 kcal/mol. The ΔG in assay [7] is -10.5 kcal/mol; in [8], -7.8 kcal/mol; in [9], -10.2 kcal/mol; in [10] it was -10.6 kcal/mol; in assay [11], -7.8 kcal/mol; in [12], -10.2 kcal/mol. Further, the ΔH was 3.6 kcal/mol in assay [7]; 5.2 kcal/mol in [8]; 3.3 kcal/mol in assay [9]; 3.7 kcal/mol in [10]; 5.2 kcal/mol in [11]; 3.3 kcal/mol in [12].
In assay [13], `CC[C@H](C)[C@H](NC(=O)[C@@H]1CCCN1C(=O)CNC(=O)[C@H](CC(N)=O)NC(=O)[C@@H]1CCCN1C(=O)[C@H](CO)NC(=O)[C@H](Cc1ccccc1)NC(=O)[C@H](CC(C)C)NC(=O)[C@H](Cc1ccc(O)cc1)NC(=O)[C@H](CC(N)=O)NC(=O)[C@@H](N)[C@@H](C)O)C(=O)N[C@@H](C)C(=O)O` [TNYL] gave a ΔH of −9.6 ± 0.3 koal mol−1.
“human EphB4 (17-196) K149Q mutant (receptor)” registered an assay window in assay [14] of 12 fold. This compound showed a negative-log Kd (pKd) in [1] of 7.64.
By pKi is commonly meant −log10 of the Ki, conventionally taken in molar units. As to TNYL-RAW peptide, the pKi is 6.77 in assay [15] and 7.00 in [19]. In addition, the negative-log Kd (pKd) is 4.44 in [16]; 6.60 in assay [7]; 7.15 in [9]; 6.80 in [10]; 7.15 in assay [12]. Also, the TΔS in assay [16] is -5.8 kcal/mol; in assay [7], -2.7 kcal/mol; in assay [9] it was -4.9 kcal/mol; in assay [10], -3.2 kcal/mol; in assay [12] it was -4.9 kcal/mol. The ΔG in [16] is -6.1 kcal/mol; in [7], -9 kcal/mol; in [9], -9.8 kcal/mol; in assay [10], -9.4 kcal/mol; in assay [12] it was -9.8 kcal/mol. Moreover, the ΔH in assay [16] was -12 kcal/mol; in assay [7] it was -11.7 kcal/mol; in [9], -14.7 kcal/mol; in assay [10] it was -12.5 kcal/mol; in assay [12] it was -14.7 kcal/mol. Further, the results for the fold reduction of affinity against wild-type EphB4 in [17] and in [18] were 3 fold and 500 fold, respectively.
As to “human EphB4 (17-196) RKR148-150SQV mutant (receptor)”, in [1], the pKd is 7.68.
Still for that read-out and setting: as for “human EphB4 (17-196) R148S mutant (receptor)”, the figure is 8.35.
In [13], LASPNGPIARAW [LFSP-RAW(F to A)] yielded a ΔH of −7.9 ± 0.9 koal mol−1.
“human EphB4 (17-196) R150V mutant (receptor)” gave a pKd in assay [1] of 8.21.
Still for that read-out and setting: as for “human EphB4 (17-196) T147F mutant (receptor)”, the figure is 7.60.
Compound “human EphB4 (17-196) ligand binding domain, wild type (receptor)” came in with an assay window in [14] of 6 fold. This compound also gave a pKd in [1] of 8.30.
